Assay results: patent publication CN115703837A (DONGGUAN PENGZHI BIOTECHNOLOGY CO LTD, dated 2023)

T1: 生长刺激表达基因2蛋白(ST2)抗原 (UniProt Q01638-2 19-328, limits assumed)
T1 construct: also called sST2; IL1RL1
T1 sequence (looked up): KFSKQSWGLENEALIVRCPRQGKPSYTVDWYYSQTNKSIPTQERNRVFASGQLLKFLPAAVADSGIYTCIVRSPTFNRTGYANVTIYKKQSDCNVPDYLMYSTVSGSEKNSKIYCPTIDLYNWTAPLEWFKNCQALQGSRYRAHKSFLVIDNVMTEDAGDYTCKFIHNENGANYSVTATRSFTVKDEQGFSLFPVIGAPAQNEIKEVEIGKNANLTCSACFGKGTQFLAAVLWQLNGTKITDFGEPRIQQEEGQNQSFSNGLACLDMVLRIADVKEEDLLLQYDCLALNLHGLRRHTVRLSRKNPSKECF


What was measured:
生长刺激表达基因2蛋白(ST2)抗原 [1] = biological target: T1, 生长刺激表达基因2蛋白(ST2)抗原; assay: sandwich ELISA, antibody at 1.953 ng/ml captured on goat anti-mouse IgG, ST2 antigen, HRP anti-ST2 mAb detection
生长刺激表达基因2蛋白(ST2)抗原 [2] = biological target: T1, 生长刺激表达基因2蛋白(ST2)抗原; assay: sandwich ELISA, antibody at 31.250 ng/ml captured on goat anti-mouse IgG, ST2 antigen, HRP anti-ST2 mAb detection
生长刺激表达基因2蛋白(ST2)抗原 [3] = biological target: T1, 生长刺激表达基因2蛋白(ST2)抗原; assay: BLI, AMC sensor, antibody immobilised at 10 ug/ml, ST2 antigen in serial dilution
生长刺激表达基因2蛋白(ST2)抗原 [4] = biological target: T1, 生长刺激表达基因2蛋白(ST2)抗原; assay: sandwich ELISA, antibody at 0.000 ng/ml (blank, no antibody), ST2 antigen, HRP anti-ST2 mAb detection
生长刺激表达基因2蛋白(ST2)抗原 [5] = biological target: T1, 生长刺激表达基因2蛋白(ST2)抗原; assay: sandwich ELISA, antibody at 7.813 ng/ml captured on goat anti-mouse IgG, ST2 antigen, HRP anti-ST2 mAb detection
生长刺激表达基因2蛋白(ST2)抗原 [6] = biological target: T1, 生长刺激表达基因2蛋白(ST2)抗原; assay: sandwich ELISA, antibody at 3.906 ng/ml captured on goat anti-mouse IgG, ST2 antigen, HRP anti-ST2 mAb detection
生长刺激表达基因2蛋白(ST2)抗原 [7] = biological target: T1, 生长刺激表达基因2蛋白(ST2)抗原; assay: sandwich ELISA, antibody at 15.625 ng/ml captured on goat anti-mouse IgG, ST2 antigen, HRP anti-ST2 mAb detection

OD450 (ref 630) (生长刺激表达基因2蛋白(ST2)抗原 [1]) [OD]	OD450 (ref 630) (生长刺激表达基因2蛋白(ST2)抗原 [2]) [OD]	Kd (生长刺激表达基因2蛋白(ST2)抗原 [3]) [nM]	koff (生长刺激表达基因2蛋白(ST2)抗原 [3]) [s⁻¹]	kon (生长刺激表达基因2蛋白(ST2)抗原 [3]) [M⁻¹ s⁻¹]	OD450 (ref 630) (生长刺激表达基因2蛋白(ST2)抗原 [4]) [OD]	OD450 (ref 630) (生长刺激表达基因2蛋白(ST2)抗原 [5]) [OD]	OD450 (ref 630) (生长刺激表达基因2蛋白(ST2)抗原 [6]) [OD]	OD450 (ref 630) (生长刺激表达基因2蛋白(ST2)抗原 [7]) [OD]	Molecule
0.163	1.51	7.3	0.00723	990000	0.046	0.37	0.26	0.665	对照 (antibody)
–	–	0.761	0.000745	979000	–	–	–	–	Anti-ST2 11F9 (antibody, V domains shown) VH: QIQLVQSGPELKKPGETVKLSCKASGYTFTDYSIHWVKQAPGKGLKWMGWIHTETGEPTYADDFKGRFAFSLETSASTAYFQINNLRNEDTATYFCARDDGLDYWGQGTSVTVSS VL: DVQMIQSPSSLSASLGDIVTMTCQASQDTNINLNWFQQKPGKAPELLIYDTNNLEDGVPSRFSGSRYGTDFTLTISSLEDEDMATYFCLQHSYLPLTFGAGTKLELK
